Results as given in the supplement of paper PMC9942255.

Tested on: Bacillus subtilis DB104 (SP-AmyQ fusion secretion)
Experiment: AmyQ secretion efficiency, weighted average sort bin (1 = best secretion, 10 = worst) (bin number (weighted average, 1-10)); higher = lower secretion efficiency
Procedure, shortened: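 The secretion score gives the average bin number weighted by read frequency and normalised to beads per bin, with low-abundance sequences excluded. Bins were 10 equally populated green/red fluorescence ratio fractions of occupied ~65 nL alginate beads, sorted by large-particle flow cytometry. The beads held fluorescein-starch and about 0.3 cells each of an amyE-integrated B. subtilis DB104 library fusing designed signal peptides to mature AmyQ, and they were grown about 13 h at room temperature and stained with nile red before sorting and Illumina sequencing.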

MKSCKQLIVCSLAAILLLPPEVSFAADS
AmyQ secretion efficiency: 2.83

MKRFSTAYLLLGILCSAAVFLIGAPSRALGARR
AmyQ secretion efficiency: 7.6

MLKKKWMVRRRKGCLAAGGFSYNAFATEN
AmyQ secretion efficiency: 7.58

MKNMSCKLVVSVTLFFSFLTIGPLHHAQNS
AmyQ secretion efficiency: 5.75

MRPVFPLILSAVLFLSCFFGARQTEASNSKR
AmyQ secretion efficiency: 2.41

MTKRITYSLLALLAVVAFAFTDSSKAKAAEA
AmyQ secretion efficiency: 2.05

MNFKKTVVSALSISASVSGVASAHEI
AmyQ secretion efficiency: 5.11

MGMKKKLSLGVASAALGLALVGGGGWAAFN
AmyQ secretion efficiency: 6.46

MKKRLIGFLVLVPALIMSGITLLEANKK
AmyQ secretion efficiency: 6.63

MKKRLIAPMLLSAASLAFMSGSAQAAAY
AmyQ secretion efficiency: 3.31

MLKKKWMVGLLAGCLAAGGFSYNWFATEN
AmyQ secretion efficiency: 6.53

MKLKSKYYKGCRSTSTVFVATTIANAPTH
AmyQ secretion efficiency: 7.35

MRHKIIGRYQTSSGQIIIGNMIGGGGGSEATSK
AmyQ secretion efficiency: 7.7

MKRFSTAYLLLGILCSAAVFLILSAGAPSRALGAEV
AmyQ secretion efficiency: 3

MKKWIYGGQTGKIAGIGGFSVHAASS
AmyQ secretion efficiency: 6.97

MKRKLLSSLAISALSLGLLVKRRKKKSFAAES
AmyQ secretion efficiency: 7.18

MKKIVSILFMFGLVMGFSQFQPSTVFAAKK
AmyQ secretion efficiency: 2.86

MRKNRILALFVLSLGLLSFMVTPISAASK
AmyQ secretion efficiency: 2.15

MTKIGLLFMLCLAALFTIGFPAQQADAAEA
AmyQ secretion efficiency: 3.42

MKKRLIAPMLKRRKSLAFFAMSGSAQAAAY
AmyQ secretion efficiency: 7.31

MKKKLAAGLTASAIVGTTLVVTPAEAADE
AmyQ secretion efficiency: 3.03

MKKWIYVVLVLSIAGIGGKRRVHAASS
AmyQ secretion efficiency: 7.83

MKKRFSLIMMTGLLFGLTKRKKKKAFAAEK
AmyQ secretion efficiency: 7.34

MTRFILVLSFLSIIVAYPIQTNASPM
AmyQ secretion efficiency: 5.75

MKSKGSIMACLILFSFTITTFINTETISKFSN
AmyQ secretion efficiency: 7.47

MKKWIYVRRVLSIAGIGGFSVHAASS
AmyQ secretion efficiency: 7.43

MKKSQYFIVFICFFVLFSVHPIAGAAADS
AmyQ secretion efficiency: 3.96

MTKTIFAFLTGLMMFGTITAASASPD
AmyQ secretion efficiency: 3.99

MMFMFLLCVMMLLFSAIASFPVSAQAKDQ
AmyQ secretion efficiency: 6.02

MKNMSCKLVVSVTLFFSFLTIGPLMHAQNS
AmyQ secretion efficiency: 1.39

MKLSVKIAGVLTVAAAAMTAKMYATHKGN
AmyQ secretion efficiency: 6.71

MKQIMIFLTSFMLLAMTGQTCLAKDV
AmyQ secretion efficiency: 3.75

MKKTIMSFVAVAALSTGAHASAKEI
AmyQ secretion efficiency: 2.46

MRKKLKWLSFLLGFIILLFLFFFIALIVLAKYQFSNNDS
AmyQ secretion efficiency: 6.41

MPYLKRVLLLLVFFLFMFLFSAVTATASAQTG
AmyQ secretion efficiency: 1.35

MKRTWNVCLTALLSVLLVAGSVVPFHAEAKKP
AmyQ secretion efficiency: 1.9

MFLAKRVSALTPSTTLAITAKAKEL
AmyQ secretion efficiency: 7.34

MKKVLMAFIICLSLILDVLAAPPSGAKAESV
AmyQ secretion efficiency: 1.95

MKWMCSICCAAVLLAGGAPQAEAV
AmyQ secretion efficiency: 2.41

MRGKSAVLLSLIMLIAGFLISFNFQM
AmyQ secretion efficiency: 6.3

MLKKKWMVGLLAGCLAAGGFSYNAFSTEN
AmyQ secretion efficiency: 6.06

MKKKLAAGLTASAIVGTTLVVTPPEAATI
AmyQ secretion efficiency: 5.33

MKRRKKKVLTGSVLSLGLLVSASPAFATSP
AmyQ secretion efficiency: 1.34

MKWMTNCSICCAAVLLAGGAAQAEAV
AmyQ secretion efficiency: 3.49

MKLKKRVSMFLVALTMCGGLFVTPTKAVKT
AmyQ secretion efficiency: 3.85

MRKKLKWLSTLLGFIILLFLFKYQFSNNDS
AmyQ secretion efficiency: 5.35

MRKVLTMCFLGLILFVPTALADNS
AmyQ secretion efficiency: 2.17

MRPVFPIMNNILLILSAVLFLSCFFGARQTEASASKR
AmyQ secretion efficiency: 1.84

MKVLLSALLLLLFAFEPSASVKKL
AmyQ secretion efficiency: 6.34

MTKAFLVFLSVVLVTTVFLVKQQESVAQAKQL
AmyQ secretion efficiency: 5.72

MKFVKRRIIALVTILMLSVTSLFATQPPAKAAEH
AmyQ secretion efficiency: 2.78

MKWYCSICCAAVLLAGGAAQAEAV
AmyQ secretion efficiency: 2.63

MRNLTKTKRRKAGLCTAAQMVFVTHASAEES
AmyQ secretion efficiency: 6.94

MKSKGSIMACLILFSFTITDEINTETISAFSN
AmyQ secretion efficiency: 6.09

MKKGKRTRTIGLLTVSIASPSFAAEK
AmyQ secretion efficiency: 6.26

MKWMCSICCAAVLLAGIAIAQAEAV
AmyQ secretion efficiency: 6.86

MKLSVKIAGVLTVAAAAMTAKMYATTKGN
AmyQ secretion efficiency: 5.53

MLCKRKRLFSAIASFPVSAQAKDQ
AmyQ secretion efficiency: 7.61

MIKGIIRFLLVSFVLFFALSTGITGVQAAPA
AmyQ secretion efficiency: 2.2

MNLRKILLSSALSLGMLVSAAPTLATSS
AmyQ secretion efficiency: 2.34

MAIIIAIIAAVIVIAALITFNVRNYSPG
AmyQ secretion efficiency: 7.13

MKSKGSIMIFIFACLILFSFTITTFINTETISAFSN
AmyQ secretion efficiency: 7.77

MRKYTVIASILLSFLSVLDEDDEDHHESKAFPV
AmyQ secretion efficiency: 5.95
